The text below walks through data of PMC9335266 (Proceedings of the National Academy of Sciences of the …, 2022).

The assay addresses TRIM7^B30.2 (PRY-SPRY domain of human TRIM7, residues 338-511) (human, UniProt Q9C029 338-511). The assay is described as follows: ITC.

Consider KRKLDTYLQ [GN1 peptide (KRKLDTYLQ), Ct-nonapeptide of glycogenin-1], for which the Kd amounted to 2.7 µM.
